Test in all cases: SPR
Assay [1] has as its target GST-Cul5^NTD His48Ala (mouse, UniProt Q9D5V5 1-384, His48Ala | Val341Arg | Leu345Asp).
For assay [2], the target named is GST-Cul5^NTD Leu52Ala (mouse, UniProt Q9D5V5 1-384, Leu52Ala | Val341Arg | Leu345Asp).
For assay [3], the target named is GST-Cul5^NTD Phe41Ala (mouse, UniProt Q9D5V5 1-384, Phe41Ala | Val341Arg | Leu345Asp).
In assay [4] the target is GST-Cul5^NTD Gln113Ala (mouse, UniProt Q9D5V5 1-384, Gln113Ala | Val341Arg | Leu345Asp).
Assay [5] deals with GST-Cul5^NTD (wild type) (mouse, UniProt Q9D5V5 1-384, Val341Arg | Leu345Asp).
Sequence of GST-Cul5^NTD (wild type) (Q9D5V5 1-384 V341R/L345D): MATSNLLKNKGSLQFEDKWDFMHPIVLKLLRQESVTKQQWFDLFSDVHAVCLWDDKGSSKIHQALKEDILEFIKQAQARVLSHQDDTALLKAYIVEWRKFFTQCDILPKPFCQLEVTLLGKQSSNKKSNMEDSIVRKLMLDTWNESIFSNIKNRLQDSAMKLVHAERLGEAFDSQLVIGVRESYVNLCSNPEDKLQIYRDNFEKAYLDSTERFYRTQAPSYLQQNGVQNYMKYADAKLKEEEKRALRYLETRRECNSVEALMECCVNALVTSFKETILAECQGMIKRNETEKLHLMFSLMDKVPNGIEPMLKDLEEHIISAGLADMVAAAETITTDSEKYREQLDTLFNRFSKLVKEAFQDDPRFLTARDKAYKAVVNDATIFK

Sequence of GST-Cul5^NTD Phe41Ala (Q9D5V5 1-384 F41A/V341R/L345D): as the sequence (Q9D5V5 1-384 V341R/L345D) above, with F41A counted along it
Sequence of GST-Cul5^NTD Leu52Ala (Q9D5V5 1-384 L52A/V341R/L345D): as the sequence (Q9D5V5 1-384 V341R/L345D) above, with L52A counted along it
Sequence of GST-Cul5^NTD Gln113Ala (Q9D5V5 1-384 Q113A/V341R/L345D): as the sequence (Q9D5V5 1-384 V341R/L345D) above, with Q113A counted along it
Sequence of GST-Cul5^NTD His48Ala (Q9D5V5 1-384 H48A/V341R/L345D): as the sequence (Q9D5V5 1-384 V341R/L345D) above, with H48A counted along it

B1: ASB9–Elongin B/C ternary complex (wild type) (complex)
chain 1: SDWSPMHEAAIHGHQLSLRNLISQGWAVNIITADHVSPLHEACLGGHLSCVKILLKHGAQVNGVTADWHTPLFNACVSGSWDCVNLLLQHGASVQPESDLASPIHEAARRGHVECVNSLIAYGGNIDHKISHLGTPLYLACENQQRACVKKLLESGADVNQGKGQDSPLHAVARTASEELACLLMDFGADTQAKNAEGKRPVELVPPESPLAQLFLEREGPPSLMQLCRLRIRKCFGIQQHHKITKLVLPEDLKQFLLHL
chain 2: […]
chain 3: […]
Take B1: the “fold loss in affinity against wild-type Cul5” value in assay [1] and in assay [3] was 50 fold throughout. The binding result in assay [2], in assay [4] and in assay [5] was “binds” each time.
